According to US20220143214A1:
Like-named read-outs stand apart in the source and are kept apart here.

Experiments:
[1] = molecular target: LY6C1 (Ly6c1, C57BL/6J mouse, splice variant 1) (mouse (C57BL/6J)) (UniProt P0CW02); test: AAV library bound to Ly6c1-transfected HEK293T cells, NGS
[2] = molecular target: LY6A (Ly6a, C57BL/6J mouse) (mouse (C57BL/6J)) (UniProt P05533); test: AAV library bound to Ly6a-transfected HEK293T cells, NGS
[3] = molecular target: LY6C1 (Ly6c1, C57BL/6J mouse, splice variant 1) (mouse (C57BL/6J)) (UniProt P0CW02); test: cell-based or functional assay
[4] = molecular target: LY6A (Ly6a, C57BL/6J mouse) (mouse (C57BL/6J)) (UniProt P05533); test: AAV library bound to Ly6a-transfected HEK293T cells, NGS; remark: listed apart in the source
[5] = molecular target: LY6C1 (Ly6c1, C57BL/6J mouse, splice variant 1) (mouse (C57BL/6J)) (UniProt P0CW02); test: AAV library bound to Ly6c1-transfected HEK293T cells, NGS; remark: listed apart in the source
[6] = molecular target: LY6A (Ly6a, C57BL/6J mouse) (mouse (C57BL/6J)) (UniProt P05533); test: qPCR of viral genomes bound to Ly6a-transfected HEK293T cells
[7] = molecular target: LY6A (Ly6a, C57BL/6J mouse) (mouse (C57BL/6J)) (UniProt P05533); test: binding (qPCR) and transduction of cells with ectopic LY6A
[8] = molecular target: LY6A (Ly6a, C57BL/6J mouse) (mouse (C57BL/6J)) (UniProt P05533); test: qPCR of viral genomes bound to BMVECs treated with Ly6a sgRNAs (CRISPR/SaCAS9)
[9] = molecular target: LY6A (Ly6a, C57BL/6J mouse) (mouse (C57BL/6J)) (UniProt P05533); test: cell-based or functional assay

UniProt P05533, sequence (P05533 27-112 limits assumed): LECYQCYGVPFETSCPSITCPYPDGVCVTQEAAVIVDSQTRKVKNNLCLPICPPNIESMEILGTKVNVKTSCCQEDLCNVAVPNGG
UniProt P0CW02, sequence (P0CW02 27-109 limits assumed, change not shown): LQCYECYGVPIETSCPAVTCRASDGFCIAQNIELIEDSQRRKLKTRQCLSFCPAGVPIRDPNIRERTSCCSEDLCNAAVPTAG

| Substance | fold enrichment (log2) [4] [log2] | fold enrichment (log2) [5] [log2] | other results |
| --- | --- | --- | --- |
| AAV9 K449R 7-mer variant C1 (KSAGSIY) |  |  | fold enrichment (log2) [1]: 6.12 log2; fold enrichment (log2) [2]: 1.41 log2 |
| AAV9 K449R 7-mer variant C3 (WGTPPRG) |  |  | fold enrichment (log2) [1]: 6.35 log2; fold enrichment (log2) [2]: 1.01 log2 |
| AAV9 K449R 7-mer variant C5 (ELYKLPT) |  |  | fold enrichment (log2) [1]: 5.38 log2; fold enrichment (log2) [2]: -2.26 log2 |
| AAV9 K449R 7-mer variant C28 (KSVGSVY) |  |  | fold enrichment (log2) [1]: 3.59 log2; transduction of hCMEC cells (firefly luciferase assay) (logs (base 10)) [3]: 2; fold enrichment (log2) [2]: -1.24 log2 |
| AAV9 K449R 7-mer variant SINKPFV | 4.74 | -0.3 |  |
| AAV9 K449R 7-mer variant SIYLGSQ | -0.76 | 4.47 |  |
| AAV9 K449R 7-mer variant SKGSYST | 1.54 | 2.74 |  |
| AAV9 K449R 7-mer variant SKSGYSA | -3.32 | 2.14 |  |
| AAV9 K449R 7-mer variant SKTGYST | -3.55 | 4.43 |  |
| AAV9 K449R 7-mer variant SLDFKNI | 4.61 | -1.29 |  |
| AAV9 K449R 7-mer variant SLSKPFS | 2.19 | -2.08 |  |
| AAV9 K449R 7-mer variant SNDRPFI | 5.43 | -1.02 |  |
| AAV9 K449R 7-mer variant SQKTPFL | 3.81 | -3.55 |  |
| AAV9 K449R 7-mer variant SSEKPFQ | 2.69 | -3.55 |  |
| AAV9 K449R 7-mer variant SSTGYSS | -1.93 | 4 |  |
| AAV9 K449R 7-mer variant STRGYSA | 1.08 | 3.55 |  |
| AAV9 K449R 7-mer variant STTFKDI | 3.44 | -3.32 |  |
| AAV9 K449R 7-mer variant SYIGASS | -1.01 | 5.08 |  |
| AAV9 K449R 7-mer variant SYQGYSS | 1.47 | 5.21 |  |
| AAV9 K449R 7-mer variant TDTRPFI | 4.19 | -3.32 |  |

| Substance | fold enrichment (log2) [4] [log2] | fold enrichment (log2) [5] [log2] | other results |
| --- | --- | --- | --- |
| AAV9 K449R 7-mer variant TEKWTSS | 0.98 | 4.43 |  |
| AAV9 K449R 7-mer variant TGTSPFK | 2.22 | -3.32 |  |
| AAV9 K449R 7-mer variant TITFKDV | 5.15 | -0.78 |  |
| AAV9 K449R 7-mer variant TKSGYST | 0.68 | 5.71 |  |
| AAV9 K449R 7-mer variant TKSTPFI | 2.6 | -1.85 |  |
| AAV9 K449R 7-mer variant TKYMHSS | 1.35 | 4.24 |  |
| AAV9 K449R 7-mer variant TLAYPFK | 3.93 | -0.72 |  |
| AAV9 K449R 7-mer variant TQQGYSS | -0.92 | 5.8 |  |
| AAV9 K449R 7-mer variant TRDLPFK | 4.34 | -1.36 |  |
| AAV9 K449R 7-mer variant TRFGAST | 0 | 4.32 |  |
| AAV9 K449R 7-mer variant TRFGSST | 1.29 | 3.63 |  |
| AAV9 K449R 7-mer variant TRNGYST | 0.82 | 5.58 | fold enrichment (log2) [1]: 4.05 log2; fold enrichment (log2) [2]: 0.186 log2 |
| AAV9 K449R 7-mer variant TRTGYST | 0.89 | 4.63 |  |
| AAV9 K449R 7-mer variant TRTSGAS | 0.43 | 3.85 |  |
| AAV9 K449R 7-mer variant TSFKPFP | 3.11 | 0.48 |  |
| AAV9 K449R 7-mer variant TSMKPFL | 3.49 | -0.98 |  |
| AAV9 K449R 7-mer variant TTMKPFN | 2.95 | -3.74 |  |
| AAV9 K449R 7-mer variant TVMAPFK | 5.53 | -0.19 |  |
| AAV9 K449R 7-mer variant TVTGYSS | -3.91 | 3.22 |  |
| AAV9 K449R 7-mer variant TYGGYSQ | -0.34 | 2.02 |  |

| Substance | fold enrichment (log2) [4] [log2] | fold enrichment (log2) [5] [log2] | other results |
| --- | --- | --- | --- |
| AAV9 K449R 7-mer variant TYKSGSS | 1.95 | 3.78 |  |
| AAV9 K449R 7-mer variant VAERPFK | 6.38 | 1.22 |  |
| AAV9 K449R 7-mer variant VAVFKNV | 4.23 | -0.91 |  |
| AAV9 K449R 7-mer variant VKGGYSS | 0.07 | 3.3 |  |
| AAV9 K449R 7-mer variant VKVGFSS | -2.25 | 4.22 |  |
| AAV9 K449R 7-mer variant VNRGYSS | 0.89 | 5.18 |  |
| AAV9 K449R 7-mer variant VPRYGSS | -1.01 | 3.55 |  |
| AAV9 K449R 7-mer variant VRPGWST | 1.02 | 5.89 |  |
| AAV9 K449R 7-mer variant VTHGYSS | -0.84 | 3.25 |  |
| AAV9 K449R 7-mer variant VYPGYST | -3.32 | 2.21 |  |
| AAV9 K449R 7-mer variant WRQGYAS | -0.09 | 2.89 |  |
| AAV9 K449R 7-mer variant YENRPFV | 2.23 | -3.32 |  |
| AAV9 K449R 7-mer variant YLKGYSA | 0.15 | 4.46 |  |
| AAV9 K449R 7-mer variant YVGNPFK | 4.53 | 0.58 |  |
| AAV-PHP.B |  |  | fold increase in binding on Ly6a expression [6]: > 50 fold |
| AAV-PHP.B2 |  |  | fold increase in binding on Ly6a expression [6]: > 50 fold |
| AAV-PHP.B3 |  |  | fold increase in binding on Ly6a expression [6]: > 50 fold |
| AAV-PHP.eB |  |  | fold increase in binding and transduction on LY6A expression [7]: > 30 fold; reduction in binding after Ly6a disruption [8]: 50%; transduction of HEK293T cells (Luciferase assay) [9]: 30 fold; transduction of hCMEC cells (firefly luciferase assay) (logs (base 10)) [9]: 2; fold increase in binding on Ly6a expression [6]: > 50 fold |
